Laboratory results as given in PMC10437922, “DNAJB3 attenuates ER stress through direct interaction with AKT” (PLOS ONE, 2023).

Biological target: T1, His-AKT1 (human, UniProt P31749 1-480)
T1 construct: 'human' stands only before DNAJB3; also called pH6K-AKT1; source: E. coli BL21 (DE3), purified (Ni-NTA, gel filtration Superdex 200)
Test: ITC; DNAJB3 (250 uM, syringe) titrated into 20 uM protein in the cell; 25°C; 25 mM Tris-HCl pH 8.0, 150 mM NaCl, 1 mM DTT; one-site binding model
Settings: both partners purified

T1 sequence (P31749 whole entry): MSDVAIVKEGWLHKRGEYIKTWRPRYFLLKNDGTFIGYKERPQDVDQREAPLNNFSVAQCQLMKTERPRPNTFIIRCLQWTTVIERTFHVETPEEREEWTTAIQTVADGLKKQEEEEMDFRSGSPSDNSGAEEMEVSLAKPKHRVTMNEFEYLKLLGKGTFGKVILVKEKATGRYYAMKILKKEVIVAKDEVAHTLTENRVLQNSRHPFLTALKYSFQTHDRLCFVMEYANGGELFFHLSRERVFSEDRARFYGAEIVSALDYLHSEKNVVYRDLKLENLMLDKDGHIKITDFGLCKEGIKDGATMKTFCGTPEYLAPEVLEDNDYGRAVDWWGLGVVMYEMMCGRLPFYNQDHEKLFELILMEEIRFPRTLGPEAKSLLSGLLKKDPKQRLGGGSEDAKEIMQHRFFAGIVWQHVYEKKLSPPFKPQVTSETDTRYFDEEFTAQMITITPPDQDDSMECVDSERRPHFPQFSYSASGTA

Kd: ~62 µM
stoichiometry N: 0.84
B1: His-DNAJB3 (natural protein)
chain: not shown
notes: 6xHIS residues'; also called hDNAJB3; pH6K-DNAJB3; source: E. coli BL21 (DE3), purified (Ni-NTA, gel filtration Superdex 200)
